Consider four molecules from PMC2876729 (The Biochemical journal, 2010).

The chains are these.
B1: Recombinant human transglutaminase-2 (enzyme, UniProt P21980 1-687, looked up)
chain: MAEELVLERCDLELETNGRDHHTADLCREKLVVRRGQPFWLTLHFEGRNYEASVDSLTFSVVTGPAPSQEAGTKARFPLRDAVEEGDWTATVVDQQDCTLSLQLTTPANAPIGLYRLSLEASTGYQGSSFVLGHFILLFNAWCPADAVYLDSEEERQEYVLTQQGFIYQGSAKFIKNIPWNFGQFEDGILDICLILLDVNPKFLKNAGRDCSRRSSPVYVGRVVSGMVNCNDDQGVLLGRWDNNYGDGVSPMSWIGSVDILRRWKNHGCQRVKYGQCWVFAAVACTVLRCLGIPTRVVTNYNSAHDQNSNLLIEYFRNEFGEIQGDKSEMIWNFHCWVESWMTRPDLQPGYEGWQALDPTPQEKSEGTYCCGPVPVRAIKEGDLSTKYDAPFVFAEVNADVVDWIQQDDGSVHKSINRSLIVGLKISTKSVGRDEREDITHTYKYPEGSSEEREAFTRANHLNKLAEKEETGMAMRIRVGQSMNMGSDFDVFAHITNNTAEEYVCRLLLCARTVSYNGILGPECGTKYLLNLNLEPFSEKSVPLCILYEKYRDCLTESNLIKVRALLVEPVINSYLLAERDLYLENPEIKIRILGEPKQKRKLVAEVSLQNPLPVALEGCTFTVEGAGLTEEQKTVEIPDPVEAGEEVKVRMDLLPLHMGLHKLVVNFESDKLKAVKGFRNVIIGPA
B2: Recombinant human endostatin produced in HEK 293-EBNA cells (wild type) (domain or fragment, UniProt P39060 1572-1754, looked up)
chain: HSHRDFQPVLHLVALNSPLSGGMRGIRGADFQCFQQARAVGLAGTFRAFLSSRLQDLYSIVRRADRAAVPIVNLKDELLFPSWEALFSGSEGPLKPGARIFSFDGKDVLRHPTWPQKSVWHGSDPNGRRLTESYCETWRTEAPSATGQASSLLGGRLLGQSAASCHHAYIVLCIENSFMTASK

Experiment [1] concerns the target Recombinant human endostatin expressed in Pichia pastoris (human) (UniProt P39060). Put plainly: SPR.
For experiment [2], the target named is Recombinant human endostatin produced in HEK 293-EBNA cells (wild type) (human) (UniProt P39060). Put plainly: SPR.
Experiment [3] deals with NC1(XVIII) domain R27A/R139A double mutant (human). Put plainly: ELISA. Background: In an ELISA, binding on a coated surface is turned into a signal by an enzyme label.
For experiment [4], the target named is B2. Put plainly: ELISA.
Experiment [5] has as its target B1. Put plainly: SPR. Background: SPR reads the build-up and loss of mass on a sensor chip optically.

Usually Kd stands for a measure of binding affinity in units of concentration. One may read the koff as the first-order rate constant of dissociation. A word on the kon: it is the second-order rate constant of association. As for “Guinea pig TG-2 extracted from liver (enzyme)”, in experiment [1], the Kd amounted to 5.59 nM and the koff came to 0.000341 s⁻¹. Also, in experiment [2], the Kd was 6.8 nM, the off-rate constant (koff) was found to be 0.000765 s⁻¹, the on-rate (kon) came out at 112000 M⁻¹ s⁻¹ and the percent inhibition of binding by 1 mM GTP was 96.7%.

For the molecule “Recombinant human transglutaminase-2 (from UniProt P21980 1-687) (enzyme)”, in experiment [3], the percent of the binding of the wild type NC1 domain amounted to 31%.

In the case of B1, in experiment [4], the “fold increase of binding with 8 mM CaCl2 against no cation” value was about 38 fold, the “fold increase of binding with 8 mM MgCl2 against no cation” value was about 2 fold and the “fold increase of binding with 8 mM MnCl2 against no cation” value was about 10 fold.

Consider B2, for which, in experiment [5], the binding result is reported as “binds”.
